Measured values published in article PMC7617879.

Target: catalytic domain of MMP-14 (MMP-14CAT) (human)
Assay: enzyme inhibition assay

Ki: 1.57 nM
B1: N-TIMP2-S31PrK, P16035 27-153 (domain or fragment)
chain: CSCSPVHPQQAFCNADVVIRAKAVSEKEVDKGNDIYGNPIKRIQYEIKQIKMFKGPEKDIEFIYTAPSSAVCGVSLDVGGKKEYLIAGKAEGDGKMHITLCDFIVPWDTLSTTQKKSLNHRYQMGCE
modifications: here or on the partner: propargyl lysine (PrK) at position 31
